From the DeepSol protein solubility set

Test: soluble on expression in E. coli; label from the status in PepcDB or PDB records

Row | Sequence | soluble on expression in E. coli
1 | MAHHHHHHMMAAPGTSQLDSLKATARKGFYTGLSSGLMRQLIYATARLGFYPSFRDGILEGEVALGLKRSADPAGATALDRALAGASAGVFASFLSSPVEVCLVLQTTSKGKERLSMLQACNSVLKSRGVTGLWSGFGALASRAALVGVSQVAVHDQVLTMLRKRNVKRADPLGDNVVVNIASVITALFYSIVTMPVEVARVRMSAEAKLSAGAERRYHNVVQCIGRIFKEEGLLAMYDSYLPYFSRCASQTVICFFVIEYLTRELRERQKAKTNLIK | soluble
2 | MAHHHHHHMMPRSENQKEEEEWELHPLFLSKIPNKKDIDKNPALSALITLINEEEEKEVFSYEPRRKNLKKKITEKGQIIYKKDRRNLYEPYQQNKNDKINYFEKKNFGGNADISKEEEVLDVEMDEEGTTVTTAEQGGDHSSQNVSNNQEATDQTSIGEVLVCLSMMNLKQ | soluble
3 | MAHHHHHHMMSLAIEAVKDFLVKLQDDICEALEAEDGQATFMEDKWTREGGGGGRTRVMVNGAVIEKGGVNFSHVYGKGLPGSSTERHPDMTGCNFQAMGVSLVIHPKNPHVPTSHANVRLFVAEREGKEPVWWFGGGFDLTPYYAVEEDCRYFHQVAQDLCKPFGADVYTRFKVWCDEYFFIPYRNEARGIGGLFFDDLNEWPFEKCFEFVQAVGKGYIDAYIPIVNRRKNTPYTEQQVEFQEFRRGRYAEFNLVIDRGTKFGLQSGGRTESILISLPPRARWGYDWQPEPGTPEARLTEYFLMKRQWV | soluble
4 | MAHHHHHHMMSSASLLEKVPQPWAALVRPFLQRSHEFEDKEPLVAYYLRTHVAFLCMRQRSKEDKDGTAFLMTLLDALEASKARLGAQLQGIDGRTVLTKFALMLFARADDAERTGNASMAIVRLFYTASVLFEATAQFTDDGAMDAVAAQKSKYAKYIATRMKKALDKNEPYVSPNKLETADDDAAGGVGGVNGAGPATTFTTAPASCFMRPTSQPTSVSNRAPAPTTAHENLPALPYAPPPVTQKLDTPPPPPHTPDADTQGRSKTPVHPSPMKNTYAPPQPQHTSQQQQWLSTSSAVPSLPPTPSSAQQRYAAPSSAGGGVGATGFKPSVDQMIDAQKLASQAVSALQFYDYENAKQQLVASLRVLNGVQ | soluble
5 | MAHHHHHHMNEKGNFMKKAYKNNNIQLSENQINQRIKNVNLTKRLICYERYLKAIPKIERRNDLKNSWHPETPRYNKQISLSQWNKELKKWRKQIHAWGNISEEDHRYICKLSYTDKYKYLCNLKMPELSNLEIKNMKKENEEISHDILKHILLIQNKHNNPFDENDKIMYQPIFFLPENFSGTVVHNEFVIIKEQNMEKYLTLLKDKYKDKYNYCFKKYYELYLLNKDSDNKNVENSKNTIPKNGKNHIVIYLGKETKPLNYKNKEAQYEQKEKMEAYNFLCGSTKKYENHNKMNKRKKF | not soluble
6 | MAHHHHHHMNFIKAEEKDKCAEEQGVKLFYLKSCKEKEYELHMDVCQAIVEDCPLLEVYVVSRGDGSSESGAFELYDNGQLIKKFTNCNVSTVTSFIRKYAQKGGSSPMEATQSGELNSTGKTDTVKKIEHLIGSNKIILFMKGSKTFPQCKFSNAVVFMLNSCKVKYTTYDILQDEDVRSELKIYSNWPTYPQLYINAELIGGHDIIKSMYDSGELRDVVPQDCFEG | soluble
7 | MAHHHHHHMNGNHGEPGTERENRSSADEAPKGDAFFDPSAEQYLVISPRQKLNPVLKKINRVRYKFSNIIPDFLIGKNNACLFISMKYHRLRSNYLKARIETLSNKYSNRILLCLVDIENIENSLGEINQLAFCFNMTLILCWSTEECARVIEDFKIYEKKISYIRNNKLTSTHAEKIHELLKKIRCINSSDCATITNKFKSFKNIVTAKKDDLINCSGLGNKKIQALISAFNDPFF | soluble
8 | MAHHHHHHMNHSPFLTALYTDVQSRLPLWTTRYVKPISNGTFAVSSTWTDDSGAQLQRLFIAVEASDTNCISEAVLAEWIAFVEAWQAAHKEDEVSCFVGFVDLAGTVSYYRCETAVAGAWRSKPDDHLTCR | not soluble
9 | MAHHHHHHMNKHICIYGGSFDPITHAHEMVLAEVSSLDWVDEIWVVLCRCRNDKHLTEFQHRHNMFSLIMNNNSPKMLKNKIFLKDIECKETTTPTYDLLKMQKEKYPNYTFYFTIGSDLLNDIFFWDNGEKLVAENNFIIVERGNFKIDENVLKKFPSYYLIKIENMSFINYISSSDARKMLSQKNNSEDLQKYIHPVIINYIKEHDLYDNNSA | soluble
10 | MAHHHHHHMNNLTLGDSNICGTFNKLPFIESYYNRKGILLKSYSWLVKNAIGIIVLVHGLSAHLRLQYLKLNVNVVNNDYATLIDADNYYIYEDSWIEEFNKNGYSVYGIDLQGHGESDGLDKLPLHINNFDDYVYDIIDYMRRINNSIVLEKSMQKSTSNKYTIENREELLPMYLVGLSMGGNIVLRTLEILGKSNEINSNLNIKGCISLAGMISVRMVGSIDSIKYKYFYLPVMKIFSRYFPTFRPGKKKFKFEKYPFVNDLLFYDKYRFKGRITNNLAREILVALDNLHNNIDDIPKNIPILFIHSINDCLCWYEGTVSFYNKLQIDNKELYTLEDMDHVISMEPGNENVLKKILEWISNLYVQ | not soluble
11 | MAHHHHHHMNVLTSHTHLHMRRSCCMATARGCLGNIRTSDVSTRRCKGDYGFNIFHNSNPQHGASYARHERRMREDEVEDFLKSVKGWVPVDECFPCVDADADAEGADARKEEKEEMGPAPLTIFTGEGALKRDFDFANFRDAYLFMGRLWAFCYGSDKYPNVTWEGTRITVYIYSPSFRGLSKREARLAAFLNDQYNMFKKSKRQQKVIIDGVVKRSVIEDMMGECVAEALKRREEERQKPLAETVEGIATSWEAVLSKDGNNNNNDGTPSSCTSP | not soluble
12 | MAHHHHHHMPAAVPVRTPPYLVDVAANLTDCVFRGVDWKSNRLHDDDFDYVLARAQERNVQQIIITGTSLAQSVKAIALCRRYPDRRLLCTVGVHPAHCGEFLRPLDRDEVQRVAESASSVVMPHHEKSAAAMTAEREEAWAQERLDYLVDLATRNRDVVVAMGEIGIDYAEVACCPREVQEKYFARQLTAFAPLQLPFLFHSRACGMMFVSHLQDTWTRIASDAAATEAVADNAGASSPSPHAQLRGVVHSFNGTLEEQEALLSMGLYLSLNSSAFREASLAAQVALIPLGRLMFETDAPWCDVRSKDYGAQFVRTVFKTIKRKKPFEMGACLERRNEPCHLVQVMEEYLGCAKASATSPEDPLSRMDEATLVAAVYENCKRLFQL | not soluble
13 | MAHHHHHHMPFVVTHPPDTAELVEGEPFYSLAMYTLLSSTTDVVPALRNFTFQLRAFNVLPPYDAVGLLSGIDSTGLIVWGGALGFLEWLVQHPDRLQARMRNVSKAQAHVIELGCGSGVVAVALCALLRGLDLPDLVEKSISSSPAVCVWATDGNPECVSLAERNLRAQLKEPCTSCPGVAASAALLRWGDAAAVQEALQTSFPGCTAASSITVVAADVLYDAAVVPLLVSTVAEIARVHVAGAGPSTLPGSVEWWLAYTPRSLTRALNEAIFQALLDSIADHGWTYELVDLPAGAVATGFEENPDCSVPALSGCILVVQVTCDTRS | not soluble
14 | MAHHHHHHMPLTDEIQLEQLAPTIKGDASWSTGPIYVVCDVGGTNARVGFARAAQHEGSGLHIIYVRFRVTKRDIRQLLEFFDEVLQHLKKNLPYRAGPFLRRVASGAVSVPGPLTNGQLAGPFSNLKGIARLADYPVELFPRGRSALLNDLEAGSYGVLALSNAGMLSDYFKVMWKGTQWDALSEGKPVGSTIGHGRCMVVAPGTGVGSSLIHYVGVSDSYVVLALECGCLSMSWCANEDSKYVQALAGYMASKARVKGLDSTVAPIWEAAANGSGLEFNYAYEKEGPKASAPLKSAPEVAKLAKAGSDPAAVAAMDRLYKNLIGLTAETTMQFLPLTCVLMGDSIVSNSFYFDNPENVKKLQARINEHTMERQLKFLSRTTFLRQVRSVNINLLGCLEFGSQLSNRADQLAPTKSNL | not soluble
15 | MAHHHHHHMPLYRLSVSAETEGVVCIRPMRPRNWGLKVTCDACREFSPNFVYVDESEECDSGGGGTRNAAFKCASCKTLITAHIDPESYGTYRPEEDNGKGDGNSILIIEVRGATPTELEIDDKWVVEAEGATFEAADLSTDWMEYDEKSGNAVSVSQFTVEFSRLKK | soluble
16 | MAHHHHHHMQKTLFDFVRKGTSSGPAAANAVAAAHRERQWPSASNGEDSTPRTDSPPKKHAKTRREGSRSRGNSRECEGTSLKGASRDDAIDLDASVSVALLESTFPPSEEGGAIDKSKHVSSGTAVPAGAAATAAASSGTARSDAPQLQPAATSSRWLAGLITNLEWRDFLAPITVDSWRSGAFARIEHFLDGEMAKGKVILPPATDIFNAFNSCPFRDLKVVLLGQDPYHDLHQAHGLCFSVLPEVPLPPSLRNIYKELTTDIPGFQAPRHGYLQSWSEQGMLMLNATLTVEAHKANSHSKASGWTAFTDAVIQHLSQHHPNRLVFLLWGGYAQQKKKLIDASRHIVLESVHPSPLSASRGWFGCHCFSACNEALQSMGHLPMHWQLPLNASLP | not soluble
17 | MAHHHHHHMQRWPCRRCCRAATLGSRTFVLVRRRAPSAFITTASHASSGAAPPWTVAHQRVCIIIPPVEKLTTPPSPRLSRRYVDSQTLDDSRTQQADAQEPDHFRFAIKNSERGLLDHGVTPDAIAFIAEAEEEYRASSSYLHDRPGGAGMPESETHVDEVTGQQTTTTRIAAPFGETYVPSNRERFAERQRVGELSRQLNLVDKPFMLDEHAQLNLRKERQLCELLASPMPQLAKADEVAHFLLNGVYAQNLALQPRSCESVMLLYSHASFLRRLEGPTKQLTGRAHDAARLAAPSSGADTRAVPRTPQDVPFLDDMRRLYTHQKRCFISPTPLSLEHFMTTLSVITAPSTTAFHLANRLLLDADKFVLLPTRTTYTAYFTVCHVNNAMQFAMARYTDAVQALQLPVDAPMLTALLKGLNESGYVEEAVSLLSRIGHVAVSTPLLNASLETLLLSEQALACFSLYDAMRGSSVKPNAETYTLLLLACEKSQQWRRVTAILAEMQRRRVRGNEQTLNLLLKGLLQERLHSYAAQLYHTMLAKKVPLWPALELGVRPLLR | not soluble
18 | MAHHHHHHMQSNSAPVSYGAQLRASMQTLRANDTQFEQFTRGLGAVLQQWTALQLVAQHCDSRAPAVLYEDLCAWHKHDGEVYVDDMEVYFEEFFDNIRSARIEDDSMQEVGTVLHDMYCRCCLNDFSLVEHYLETLAMYVQTNPVAMSVNGGTNENLEDDAEEDAELGGDAVCEEGVDNEDEESEPMQAPTPKAPQQPPQPPRHQQQPQRKKRKNTSVRSRDGWNIVQ | not soluble
19 | MAHHHHHHMRAIQTLFIHSDKRVFLFPNTSNRTKYPSLITFPKIVLYSTPEAKRYRCVQKYLSTDFSSCSDNPHEILGRILRVPQSRSSMRKMLFTIPGIDPIQGILNGSRVCNELIRIKDVTWNRPHLIHAFFDHLPVFRFFLRSLVTLHPRTHRLHIHLVRAIHDDSRRSFLFLSFIIVAHAWR | not soluble
20 | MAHHHHHHMRASTPPLYQRQPEGLAPSYNTGLPLAMPDVPTLRIPQHLSATSHAMPPTAAAQGEFVMAATAPRLGSLETSTRATNPAPFITQFPAAQAPNLHGYVSASPRTSGTGTETSASDYFRYAANLMRNTLPPPMTELAALEEEEKSLKREEEELRPQIIELERMREQLEEQTQKVAVELMQMVVLEQQYYVEPIVDYTAQIKNAEVQCVHLASRVEEAKHSLEELQRQHQSYDAVMEEKERLKKETCAVRERFATLENRRRLCMLQSEALFDVESRRGEEAASQAEETENQLMEMRNNEPLLGIKRSRRSSRSMSRGVSFAQKSIVLDTGSDGDDDGYARSTRHTGDTVSGLTQRGSWNSAGAEDEESEQDCDRDDICGISGQSVRYSLNDTKRVQLVVPAV | not soluble
